Measured values reported in the RNAGym collection of RNA variant scans (doi:10.7554/elife.80360).

B1: HDV Ribozyme (parent)
chain: GGCCGGCAUGGUCCCAGCCUCCUCGCUGGCGCCGGCUGGGCAACAUUCCGAGGGGACCGUCCCCUCGGUAAUGGCGAAUGGGACCCA

Variants of: B1
Test: self-cleavage, relative activity (ratio to wild type); higher = more cleavage; co-transcriptional

Variant | self-cleavage
C15U C19A | 0.128
U47G A87G | 1.16
A16U C36G | 0.0519
A16U U27C | 0.587
A8G U23A | 0.9
G6U G53U | 0.643
G68C C86U | 0.997
C21A G76C | 0.0997
U20C G40C | 0.0396
G6C G54U | 0.231
A45G G59C | 1.02
C49U A56G | 1.04
G38A C84A | 0.185
G1C G53U | 0.213
G28U G55A | 0.0712
A8G G31U | 0.587
C44A G80U | 0.118
U23G G81C | 0.166
C58U G76C | 0.935
G6C G50U | 0.17
C49U A51C | 0.712
A8G A77G | 0.867
C36G A42G | 0.147
A45U U60C | 0.911

Variant | self-cleavage
G50U U79A | 0.831
C3U U12G | 0.429
A16U C62G | 0.575
G17C C18G | 0
U20A U46C | 0
C15A C22G | 0.113
C36A G54C | 0.241
G31U G54C | 0.197
A43C C66G | 0.364
C26A A51U | 1.08
C63G G80U | 0.199
A8C C30G | 0
C61U C64A | 0.89
U27A U46G | 0.369
G34U C58G | 0.0811
A42U G50C | 0.285
G10A C62A | 0.673
G38A C41U | 0.354
C44A A87C | 0.74
C14A G80U | 0.273
G2A C58G | 0.151
C15A U20A | 0.0573
C22A U46A | 0.104
C13U C26A | 1.23

Variant | self-cleavage
A51G G73A | 0.864
A43C C86G | 0.399
A43C A51C | 0.604
C48G G73C | 0.403
A45U G54U | 0.8
G81C C84U | 0.141
A8G A51C | 0.962
C14G G76A | 0.831
A71C A78U | 0.147
U27C G28A | 0.135
C30G A51G | 0
G10A C22G | 0.0171
G38A G55A | 0.0821
G10A C19A | 0.0489
U12A C85G | 0.208
G31C G67C | 0.272
G5A U60C | 0.353
U27C C66A | 0.59
A42U C75U | 0.0665
C14G U46A | 0.237
A16U C61G | 0.712
C21G | 0.0702
C7A A16U | 0.499
A8C C14A | 0.375

Variant | self-cleavage
C36U C63A | 0.534
G54A G67C | 0.591
U12A G76C | 0.443
A45C C75A | 0
G6C C75G | 0.0536
U47A A51C | 1.13
C44G C49U | 0.617
G34A C66G | 0.138
G2U G38U | 0.0126
C22U C85U | 0.577
G38A A87G | 0.219
C66G G76U | 0.88
G25A U79G | 0
C22G G73U | 0
U12G A51G | 0.867
C33G C57U | 0.166
G67A U72G | 0.383
A71C U79A | 0.529
C24U G34A | 0.0292
C19G C85U | 0
C22G A45G | 0
C4U U12G | 0.465
C14U G68U | 1.04
G55U C63U | 0.997

Variant | self-cleavage
C15U A71C | 0.467
C21A G31C | 0.0817
C15A G59C | 0.723
C4A G38A | 0.133
C14U A71C | 0.831
A45C A78U | 0.229
C62G U72A | 0.467
C33G G52A | 0.148
C66G A70G | 0.831
G76U A87U | 1.04
G34A G82C | 0.261
G52C C57G | 0.866
G76A G82A | 0.35
G28U G74C | 0.0992
A45C G55C | 0.48
C19G U65A | 0.0354
C26A G76C | 1.08
C36G U65A | 0.244
C14A C62U | 0.623
A51U A83G | 0.669
G52U A78U | 0.378
G6A G73A | 0.256
C21A A45U | 0.0923
C15G U20C | 0.166

Variant | self-cleavage
U12G U47C | 0.437
C36G U79C | 0.154
U37A G73U | 0.225
G6U U46A | 0.0755
G38C C49U | 0.277
C3G G54C | 0.674
G38C U60G | 0.113
C13A A87U | 0.157
U20C A78G | 0.0755
C15G U20G | 0
G50U G81C | 0.479
C57A G81A | 0.339
U60A C62A | 0.886
C19G C41U | 0.155
U20A U69C | 0
C7A U20C | 0
G40C G80C | 0.0608
G34A G54U | 0.17
C61G C66A | 0.674
C32G C66G | 0.0583
C18U C64U | 0.751
U20A A70U | 0.0615
C14G C85G | 0.415
G2A C44G | 0.0185

Variant | self-cleavage
U20A G82U | 0.0875
C85A C86U | 1.05
C19A | 0.123
U46A G74C | 0.297
A43G G74U | 0.243
G54C C85U | 0.892
C26U G55C | 0.954
C22U A56U | 0.776
G52C A71U | 0.831
C15G A87G | 0.543
G68C C75A | 0.0346
U12A C61U | 0.469
G40C | 0.299
C19A A70G | 0.136
C63G A78C | 0.101
G25A U72G | 0.104
G28A U47G | 0.268
C32U G82C | 0.253
A16G C58A | 0.762
U20A G29U | 0.0875
C19A G82C | 0.133
G25C A56U | 0.178
G40C U46G | 0.0831
